The supplement of paper PMC10567573

B1: KLHL14 (parent)
chain: WLYCYDPVMDVWARKQDMNTKRAI
B2: SEPHS2 (parent)
chain: KASGRFGLLQGTSAETSGGLLICL

Variants of: B1
Assay: protein stability index of a GFP-peptide fusion (GPS, HEK-293T) (PSI 1-6); higher = more stable
Settings: c terminus: a fixed tail appended
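Further: lentivirally expressed fusions sorted by FACS into six bins by GFP to DsRed ratio, PSI derived from sequencing read proportions per bin multiplied by bin number.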

Point of comparison: W12Y, protein stability index 2.09. Against it:
- W12A — lower, 1.89
- W12K — lower, 2.03
- A13W — higher, 2.44
- M18N — higher, 2.77
- T20A — lower, 2.07
- L2F — lower, 1.45
- K15E — higher, 2.21
- I24K — higher, 2.44
- K15W — lower, 1.48
- T20M — lower, 1.7
- Y3M — lower, 1.96
- T20F — lower, 1.44
- D10Q — higher, 2.74
- K15Q — lower, 1.95
- A13C — lower, 1.81
- R14P — higher, 2.23
- Y5S — higher, 2.46
- A13F — lower, 1.57
- A23N — lower, 1.7
- Y3K — the same, 2.09
- Y5G — higher, 2.43
- R22A — higher, 2.32
- D10F — lower, 1.54
- C4R — lower, 1.63
- A23E — higher, 2.33
- D6V — higher, 2.23
- D17Q — lower, 2.06
- V8W — lower, 1.95
- I24V — higher, 2.53
- V11K — lower, 1.95
- A13T — higher, 2.1
- P7I — lower, 1.93
- L2K — higher, 2.29
- K21E — lower, 1.91
- V11P — lower, 1.65
- V8D — higher, 2.37
- D17G — lower, 1.97
- D6K — higher, 2.11
- M9F — lower, 1.62
- W1S — higher, 3.06
- D10N — higher, 2.1
- W1K — higher, 2.55
- L2Q — higher, 2.55
- M9Y — lower, 2.01
- M9D — lower, 1.92
- Y5C — higher, 2.25
- T20G — higher, 2.57
- K21P — lower, 1.58
- Y3N — higher, 2.12
- I24T — lower, 1.87
- R14M — lower, 1.93
- P7S — lower, 1.62
- A13M — lower, 1.96
- D10K — higher, 3.09
- C4D — lower, 2.06
- A23R — higher, 2.62
- L2H — higher, 2.35
- R22E — higher, 2.19
- K21V — lower, 1.91
- V8A — lower, 1.76
- N19E — lower, 1.81
- V11L — lower, 2.04
- Q16H — higher, 2.27
- W1F — lower, 1.99
- C4E — higher, 2.41
- V8Y — higher, 2.14
- W12E — lower, 2.06
- R22Q — lower, 1.77
- M18Q — lower, 2.08
- A13Y — lower, 1.87
- M9W — lower, 1.64
- K15C — higher, 2.29
- Y5F — higher, 2.31
- T20W — higher, 2.34
- V11F — higher, 2.32
- D6N — lower, 1.78
- Q16A — higher, 2.42
- D17F — higher, 2.24
- K21Q — lower, 1.86
- N19S — lower, 1.83
- W12D — higher, 2.23
- D17E — lower, 1.8
- M18E — higher, 2.4
- D10Y — lower, 1.92
- T20Q — lower, 1.99
- Q16G — higher, 2.25
- Y3D — higher, 2.44
- T20P — lower, 2
- C4F — lower, 1.94
- D17V — lower, 2.06
- D17W — higher, 2.58
- V11D — lower, 1.98
- Q16L — lower, 1.72
- T20R — lower, 1.77
- V8N — lower, 1.75
- Y5W — lower, 1.44
- M9V — lower, 1.65
- D10L — higher, 2.82
- R22F — lower, 1.51
- I24C — lower, 1.99
- D6Y — higher, 2.54
- R22P — lower, 1.8
- Y5T — lower, 1.83
- I24E — higher, 2.31
- R14E — higher, 2.13
- D10R — higher, 2.34
- K15I — higher, 2.11
- M18K — higher, 2.1
- K15P — lower, 1.64
- K21N — lower, 1.81
- V11A — lower, 1.93
- Q16F — lower, 1.85
- L2S — higher, 2.39
- V11S — higher, 2.52
- K15A — lower, 1.68
- N19R — lower, 1.83
- W1D — higher, 4.41
- Y3S — lower, 1.77
- M9I — lower, 1.9
- M18R — higher, 2.48
- R14H — lower, 1.97
- M9K — lower, 2.02
- W12S — lower, 1.5
- C4P — higher, 2.51
- V11T — higher, 2.32
- W1A — higher, 2.56
- W12F — lower, 1.86
- A13Q — higher, 2.46
- T20K — higher, 2.15
- R14Q — higher, 2.45
- D10W — higher, 2.71
- W12N — higher, 2.2
- D6W — higher, 3.19
- A13E — higher, 2.36
- Y5E — higher, 2.23
- R22N — lower, 1.82
- P7E — lower, 1.88
- I24L — higher, 2.25
- Y5L — higher, 2.24
- M18H — higher, 2.55
- R22M — lower, 1.88
- W1H — higher, 3.4
- P7C — higher, 2.33
- A13D — higher, 2.84
- M18C — lower, 1.86
- D17Y — lower, 1.67
- P7V — lower, 2.08
- V11M — lower, 1.61
- P7Y — higher, 2.15
- A23S — lower, 1.97
- Y3E — higher, 2.33

Variants of: B2
Assay: as above
Settings: c terminus: a fixed tail appended

Point of comparison: L21R, protein stability index 1.57. Against it:
- A14N — higher, 2.93
- L20N — higher, 2.63
- A14L — higher, 2.44
- A14C — higher, 1.81
- C23H — higher, 4.17
- G7A — higher, 3.63
- R5I — higher, 3.36
- F6V — the same, 1.57
- I22G — higher, 2.47
- K1S — higher, 3.13
- K1E — higher, 2.6
- L8Y — higher, 1.85
- G11K — higher, 3.04
- I22D — higher, 1.72
